Data taken from patent US20190300625A1 (Regeneron, published 2019).

Experiments:
[1] = target: T1, mfTMPRSS2 knob_mmh (W106-R255).mmh (monkey); assay: SPR (Biacore 4000), mAb captured by anti-mouse Fc, HMM-mfTMPRSS2 as analyte, 25 C
T1 construct: also called mfTMPRSS2.mmh; HMM-mfTMPRSS2

[2] = target: T1, mfTMPRSS2 knob_mmh (W106-R255).mmh; assay: SPR (Biacore 4000), mAb captured by anti-mouse Fc, HMM-mfTMPRSS2 as analyte, 37 C
[3] = target: T2, hTMPRSS2 knob_mmh (W106-R255).mmh (human); assay: SPR (Biacore 4000), mAb captured by anti-mouse Fc, HMM-hTMPRSS2 as analyte, 37 C
T2 construct: also called hTMPRSS2.mmh; HMM-hTMPRSS2

[4] = target: T2, hTMPRSS2 knob_mmh (W106-R255).mmh; assay: SPR (Biacore 4000), mAb captured by anti-mouse Fc, HMM-hTMPRSS2 as analyte, 25 C

T1 sequence (chain, as listed by the source limits assumed): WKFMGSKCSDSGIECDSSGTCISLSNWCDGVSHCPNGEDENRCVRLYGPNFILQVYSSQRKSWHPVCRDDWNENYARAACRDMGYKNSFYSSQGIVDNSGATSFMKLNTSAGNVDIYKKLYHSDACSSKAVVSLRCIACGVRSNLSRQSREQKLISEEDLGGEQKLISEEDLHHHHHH
T2 sequence (chain, as listed by the source limits assumed): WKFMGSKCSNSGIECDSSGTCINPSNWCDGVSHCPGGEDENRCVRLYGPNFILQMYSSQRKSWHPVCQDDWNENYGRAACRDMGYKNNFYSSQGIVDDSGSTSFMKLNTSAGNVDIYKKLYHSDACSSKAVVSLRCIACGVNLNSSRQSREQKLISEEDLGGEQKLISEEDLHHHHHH

B1: H2aM7017N (antibody, V domains shown)
VH: QVQLVESGGGVVQPGRSLRLSCAASGFTFSSYGMHWVRQSPGKGLEWVAVIWNDGSYVYYADSVKGRFTISRDISKNTLFLQMNSLRAEDTAVYYCAREGEWVLYYFDYWGQGTLVTVSS
VL: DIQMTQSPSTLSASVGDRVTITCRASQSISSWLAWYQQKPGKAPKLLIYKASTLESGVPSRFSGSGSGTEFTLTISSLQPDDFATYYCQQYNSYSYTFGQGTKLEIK
notes: also called anti-TMPRSS2 monoclonal antibody (Biacore)
Kd [1]: 56 nM | koff [1]: 0.0157 s⁻¹ | kon [1]: 280000 M⁻¹ s⁻¹ | t½ [1]: 0.7 min | Kd [2]: 140 nM | koff [2]: 0.0512 s⁻¹ | kon [2]: 366000 M⁻¹ s⁻¹ | t½ [2]: 0.2 min | Kd [3]: 9.31 nM | koff [3]: 0.00323 s⁻¹ | kon [3]: 347000 M⁻¹ s⁻¹ | t½ [3]: 3.6 min | Kd [4]: 2.81 nM | koff [4]: 0.000745 s⁻¹ | kon [4]: 265000 M⁻¹ s⁻¹ | t½ [4]: 15.5 min
